This is an account of results in PMC8067865 (Molecules, 2021).

Common to all, as to assay: native MS; 3 to 4.5 uM purified P dimers, buffer exchanged to ammonium acetate (GII.10 Vietnam 125 mM; GII.17 Kawasaki and GII.4 Saga 300 mM; GII.4 MI001 250 mM) pH 7.5; nano-ESI, positive ion mode, 25 °C; monomer-dimer
The target in series [1] is GII.4 MI001 P domain (VP1 residues 225-530), wildtype N373 (human norovirus GII.4 MI001).
The target of series [2] is GII.10 Vietnam 026 P domain (VP1 residues 224-538) (human norovirus GII.10 Vietnam 026).
Series [3] deals with GII.17 Kawasaki 308 P domain (VP1 residues 225-530) (human norovirus GII.17 Kawasaki 308).
The target of series [4] is fully deamidated (iDiD) GII.4 Saga P domain (VP1 residues 225-530), N373 converted to iso-aspartate (human norovirus GII.4 Saga 2006) (UniProt B5BTR7).
The target of series [5] is partially deamidated GII.4 MI001 P domain (VP1 residues 225-530), approximately 64% deamidated at N373 (human norovirus GII.4 MI001).
Series [6] concerns the molecule itself.

For the molecule “GII.4 MI001 P domain (VP1 residues 225-530), wildtype N373 (domain or fragment)”, the stoichiometry N (in general, the number of molecules, sites or subunits per partner or assembly) in series [1] was determined as 2.
On to “GII.10 Vietnam 026 P domain (VP1 residues 224-538) (domain or fragment)”, for which, in series [2], the stoichiometry N is 2.
Molecule “GII.17 Kawasaki 308 P domain (VP1 residues 225-530) (domain or fragment)” yielded a stoichiometry N in series [3] of 2.
In turn, “fully deamidated (iDiD) GII.4 Saga P domain (VP1 residues 225-530), N373 converted to iso-aspartate (from UniProt B5BTR7 225-530) (domain or fragment)” showed a percent monomers in series [4] of 32%.
Regarding “partially deamidated GII.4 MI001 P domain (VP1 residues 225-530), approximately 64% deamidated at N373 (domain or fragment)”, in series [5], the percent monomers turned out to be 16%.

B1: GII.4 Saga 2006 P domain (VP1 residues 225-530), wildtype N373 (NN) (domain or fragment)
chain: GPGSKPFTVPILTVEEMTNSRFPIPLEKLFTGPSGAFVVQPQNGRCTTDGVLLGTTQLSPVNICTFRGDVTHIAGSRNYTMNLASLNWNNYDPTEEIPAPLGTPDFVGKIQGLLTQTTKGDGSTRGHKATVYTGSAPFTPKLGSVQFSTDTENDFETHQNTKFTPVGVIQDGSTTHRNEPQQWVLPSYSGRNVHNVHLAPAVAPTFPGEQLLFFRSTMPGCSGYPNMDLDCLLPQEWVQHFYQEAAPAQSDVALLRFVNPDTGRVLFECKLHKSGYVTVAHTGQHDLVIPPNGYFRFDSWVNQFYTLAPM
notes: major capsid protein VP1 of human norovirus GII.4 Saga 2006, protruding (P) domain, VP1 residues 225-530; also called GII.4 Saga P dimer; wildtype GII.4 Saga P domains; source: E. coli BL21(DE3), purified (Ni-NTA, HRV 3C cleavage, SEC; cation exchange to separate pure N373 wildtype); not shown: two His-tags, N-terminal, cleaved
Regarding B1, the “stoichiometry N” value in series [6] worked out at 2.
